Data on one molecule can be found in article PMC11413682, “SARS-CoV-2 ORF10 hijacking ubiquitination machinery reveals potential unique drug targeting sites” (Acta Pharmaceutica Sinica. B, 2024).

The target in the experiment is T1, CUL2^ZYG11B (residues 490–728) (human, UniProt Q9C0D3 490-728).
T1 construct: human ZYG11B, substrate receptor of the cullin-2 RING E3 ligase; ARM3–ARM8 repeats, residues 490–728; also called CUL2^ZYG11B(490–728); ARM3–ARM8; source: E. coli, purified (Ni-NTA, TEV cleavage, HiTrap Q HP, gel filtration); not shown: His6, N-terminal, cleaved; SUMO, N-terminal, cleaved
T1 sequence (Q9C0D3 490-728): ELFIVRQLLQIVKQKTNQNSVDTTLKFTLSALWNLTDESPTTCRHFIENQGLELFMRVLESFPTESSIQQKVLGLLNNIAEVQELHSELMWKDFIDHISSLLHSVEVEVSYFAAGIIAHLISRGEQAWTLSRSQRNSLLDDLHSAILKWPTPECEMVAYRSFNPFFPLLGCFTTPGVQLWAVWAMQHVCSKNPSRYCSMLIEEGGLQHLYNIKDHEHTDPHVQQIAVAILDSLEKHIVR
Description: ITC; MicroCal iTC200; peptides (0.5–1 mmol/L) in the syringe, CUL2^ZYG11B(490–728) (0.03 mmol/L) in the cell; 18 injections of 2 μL; repeated 3 times. To be noted: both partners purified. A general note: Isothermal titration calorimetry measures the heat released or taken up as one component is titrated into another.

B1: SARS-CoV-2 ORF10 N5 peptide (peptide)
peptide: GYINV
notes: first five residues of the SARS-CoV-2 ORF10 N-terminal extension; also called five-residue peptide; source: synthetic peptide
The term Kd denotes the constant that tells how readily two partners part at equilibrium. Low readings indicate tighter binding, high ones weaker binding. For the molecule B1, binding was characterised by a dissociation constant (Kd) of 2940 nM.
